Data from patent US20190002534A1 (UNIVERSITY OF MASSACHUSETTS, published 2019).

How the values were obtained:
Experiment in all cases: cell-based or functional assay
[1] = biological target: T1, G glycoprotein of rabies virus street isolate Bat EF (rabies virus, isolate Bat EF (Eptesicus …))
[2] = biological target: T2, G glycoprotein of rabies virus street isolate TX SK 4380 (rabies virus, isolate TX SK 4380 …)
[3] = biological target: T3, G glycoprotein of rabies virus street isolate C1434 (rabies virus, isolate C1434 …)
[4] = biological target: T4, G glycoprotein of rabies virus street isolate NC SK (rabies virus, isolate NC SK (Skunk, …))
[5] = biological target: T5, G glycoprotein of rabies virus street isolate Sonora Dog (rabies virus, isolate Sonora Dog (Dog, …))
[6] = biological target: T6, G glycoprotein of rabies virus street isolate PR Mong (rabies virus, isolate PR Mong …)
[7] = biological target: T7, G glycoprotein of rabies virus street isolate CO Bat EF6938 (rabies virus, isolate CO Bat EF6938 …)
[8] = biological target: T8, G glycoprotein of rabies virus street isolate Myotis (rabies virus, isolate Myotis (Myotis …))
[9] = biological target: T9, G glycoprotein of rabies virus street isolate AK fox (rabies virus, isolate AK fox (Fox, …))
[10] = biological target: T10, G glycoprotein of rabies virus street isolate RAC (rabies virus, isolate RAC (Raccoon, …))
[11] = biological target: T11, G glycoprotein of rabies virus street isolate WA Bat (rabies virus, isolate WA Bat …)
[12] = biological target: G glycoprotein of rabies virus street isolate Gray fox (Test B) (rabies virus, isolate Gray fox (Fox …))
[13] = biological target: G glycoprotein of rabies virus street isolate Lasiurus cinereus (Arkansas) (Test B) (rabies virus, isolate Lasiurus cinereus …)
[14] = biological target: G glycoprotein of rabies virus street isolate Eptesicus fuscus (Nebraska) (Test B) (rabies virus, isolate Eptesicus fuscus …)
[15] = biological target: G glycoprotein of rabies virus street isolate Skunk south-central (Test B) (rabies virus, isolate Skunk …)
[16] = biological target: G glycoprotein of rabies virus street isolate Raccoon (Florida) (rabies virus, isolate Raccoon (Florida))
[17] = biological target: G glycoprotein of rabies virus street isolate Eastern pipistrelle (Test B) (rabies virus, isolate Eastern …)
[18] = biological target: G glycoprotein of rabies virus street isolate SW E fuscus (Test B) (rabies virus, isolate SW E fuscus …)
[19] = biological target: G glycoprotein of rabies virus street isolate Skunk (north-central) (Test B) (rabies virus, isolate Skunk …)
[20] = biological target: G glycoprotein of rabies virus street isolate Tadarida (Test B) (rabies virus, isolate Tadarida sp. …)
[21] = biological target: G glycoprotein of rabies virus street isolate TX Fox (rabies virus, isolate TX Fox (Fox …))
[22] = biological target: G glycoprotein of rabies virus street isolate AZ fox 2400 (rabies virus, isolate AZ fox 2400 (Fox …))
[23] = biological target: G glycoprotein of rabies virus street isolate FLBat 769 (rabies virus, isolate FLBat 769 …)
[24] = biological target: T1, G glycoprotein of rabies virus street …; remark: listed apart in the source
[25] = biological target: G glycoprotein of rabies virus street isolate AZ Bat LC (rabies virus, isolate AZ Bat LC …)
[26] = biological target: G glycoprotein of rabies virus street isolate TN269 (rabies virus, isolate TN269 (Lasiurus …))
[27] = biological target: T2, G glycoprotein of rabies virus street …; remark: listed apart in the source
[28] = biological target: T3, G glycoprotein of rabies virus street …; remark: listed apart in the source
[29] = biological target: G glycoprotein of rabies virus street isolate VA1340 (rabies virus, isolate VA1340 (Lasiurus …))
[30] = biological target: G glycoprotein of rabies virus isolate Texas coyote 323R (rabies virus, isolate Texas coyote 323R)
[31] = biological target: T4, G glycoprotein of rabies virus street …; remark: listed apart in the source
[32] = biological target: T5, G glycoprotein of rabies virus street …; remark: listed apart in the source
[33] = biological target: T6, G glycoprotein of rabies virus street …; remark: listed apart in the source
[34] = biological target: G glycoprotein of rabies virus street isolate CABat (rabies virus, isolate CABat (Myotis …))
[35] = biological target: G glycoprotein of rabies virus street isolate CASK (rabies virus, isolate CASK (Skunk, U.S. …))
[36] = biological target: T7, G glycoprotein of rabies virus street …; remark: listed apart in the source
[37] = biological target: T8, G glycoprotein of rabies virus street …; remark: listed apart in the source
[38] = biological target: G glycoprotein of rabies virus street isolate TN132 (rabies virus, isolate TN132 (Lasiurus …))
[39] = biological target: G glycoprotein of rabies virus street isolate 1625 Bat (rabies virus, isolate 1625 Bat …)
[40] = biological target: G glycoprotein of rabies virus street isolate VA399 (rabies virus, isolate VA399 (Lasiurus …))
[41] = biological target: T9, G glycoprotein of rabies virus street …; remark: listed apart in the source
[42] = biological target: G glycoprotein of rabies virus street isolate TN410 (rabies virus, isolate TN410 (Lasiurus …))
[43] = biological target: T10, G glycoprotein of rabies virus street …; remark: listed apart in the source
[44] = biological target: T11, G glycoprotein of rabies virus street …; remark: listed apart in the source
[45] = biological target: G glycoprotein of rabies virus street isolate TN33 (rabies virus, isolate TN33 (Lasiurus …))

B1: anti-rabies virus human monoclonal antibody 17C7 (antibody, V domains shown)
VH: QVQLVESGGGVVQPGRSLRLSCAASGFTFSTYAMHWVRQAPGKGLEWVAVVSYDGRTKDYADSVKGRFTISRDNSKNTLYLQMNSLRTEDTAVYFCARERFSGAYFDYWGQGTLVTVSS
VL: EIVLTQSPATLSLSPGERATLSCRASQSVSSYLAWYQQKPGQAPRLLIYDASNRATGIPARFSGSGSGTDFTLTISSLEPEDFAVYSCQQRNNWPPTFGGGTKVEIK
[1]
  EC50 neutralization by RFFIT: 0.512 µg/mL
[2]
  EC50 neutralization by RFFIT: 0.006 µg/mL
[3]
  EC50 neutralization by RFFIT: 0.154 µg/mL
[4]
  EC50 neutralization by RFFIT: 0.8 µg/mL
[5]
  EC50 neutralization by RFFIT: 0.006 µg/mL
[6]
  EC50 neutralization by RFFIT: 0.007 µg/mL
[7]
  EC50 neutralization by RFFIT: 0.182 µg/mL
[8]
  EC50 neutralization by RFFIT: 0.004 µg/mL
[9]
  EC50 neutralization by RFFIT: 0.005 µg/mL
[10]
  EC50 neutralization by RFFIT: 0.027 µg/mL
[11]
  EC50 neutralization by RFFIT: 0.87 µg/mL
[12]
  EC50 neutralization by RFFIT (Test B): 0.002 µg/mL
[13]
  EC50 neutralization by RFFIT (Test B): 10.4 µg/mL
[14]
  EC50 neutralization by RFFIT (Test B): 0.002 µg/mL
[15]
  EC50 neutralization by RFFIT (Test B): 0.0004 µg/mL
[16]
  EC50 neutralization by RFFIT (Test B): 1000 µg/mL
[17]
  EC50 neutralization by RFFIT (Test B): 143 µg/mL
[18]
  EC50 neutralization by RFFIT (Test B): 675 µg/mL
[19]
  EC50 neutralization by RFFIT (Test B): 7.36 µg/mL
[20]
  EC50 neutralization by RFFIT (Test B): 1.05 µg/mL
[21]
  EC50 neutralization by RFFIT (Test A): 0.023 µg/mL
[22]
  EC50 neutralization by RFFIT (Test A): 0.211 µg/mL
[23]
  EC50 neutralization by RFFIT (Test A): 80.2 µg/mL
[24]
  EC50 neutralization by RFFIT (Test A): 0.512 µg/mL
[25]
  EC50 neutralization by RFFIT (Test A): 10 µg/mL
[26]
  EC50 neutralization by RFFIT (Test A): 400 µg/mL
[27]
  EC50 neutralization by RFFIT (Test A): 0.006 µg/mL
[28]
  EC50 neutralization by RFFIT (Test A): 0.154 µg/mL
[29]
  EC50 neutralization by RFFIT (Test A): 199 µg/mL
[30]
  EC50 neutralization by RFFIT (Test A): 0.01 µg/mL
[31]
  EC50 neutralization by RFFIT (Test A): 0.8 µg/mL
[32]
  EC50 neutralization by RFFIT (Test A): 0.006 µg/mL
[33]
  EC50 neutralization by RFFIT (Test A): 0.007 µg/mL
[34]
  EC50 neutralization by RFFIT (Test A): 0.006 µg/mL
[35]
  EC50 neutralization by RFFIT (Test A): 0.006 µg/mL
[36]
  EC50 neutralization by RFFIT (Test A): 0.182 µg/mL
[37]
  EC50 neutralization by RFFIT (Test A): 0.004 µg/mL
[38]
  EC50 neutralization by RFFIT (Test A): 414 µg/mL
[39]
  EC50 neutralization by RFFIT (Test A): 80 µg/mL
[40]
  EC50 neutralization by RFFIT (Test A): 21.9 µg/mL
[41]
  EC50 neutralization by RFFIT (Test A): 0.005 µg/mL
[42]
  EC50 neutralization by RFFIT (Test A): 8 µg/mL
[43]
  EC50 neutralization by RFFIT (Test A): 0.027 µg/mL
[44]
  EC50 neutralization by RFFIT (Test A): 0.87 µg/mL
[45]
  EC50 neutralization by RFFIT (Test A): 9.11 µg/mL

B2: anti-rabies virus human monoclonal antibody 2B10 (antibody, V domains shown)
VH: EVQLVQSGGGLVHPGGSLRLSCAGSGFTFSYFAMHWVRQAPGKGLEWVSTIGTGGGTYYADSVKGRFTISRDNAKNSLYLQMNSLRAEDMAVYYCARDNALRSFDWLFYSFDYWGQGTLVTVSS
VL: EIVLTQSPGTLSLSPGERATLSCRASQSISSSYLAWYQQKPGQAPRLLIYGASSRATGIPDRFSGSGSGTDFTLTISRLEPEDFAVYYCQRYGSSYTFGQGTKLEIK
[1]
  EC50 neutralization by RFFIT: 0.015 µg/mL
[2]
  EC50 neutralization by RFFIT: 0.005 µg/mL
[3]
  EC50 neutralization by RFFIT: 0.008 µg/mL
[4]
  EC50 neutralization by RFFIT: 0.004 µg/mL
[5]
  EC50 neutralization by RFFIT: 0.006 µg/mL
[6]
  EC50 neutralization by RFFIT: 0.006 µg/mL
[7]
  EC50 neutralization by RFFIT: 0.01 µg/mL
[8]
  EC50 neutralization by RFFIT: 0.008 µg/mL
[9]
  EC50 neutralization by RFFIT: 0.004 µg/mL
[10]
  EC50 neutralization by RFFIT: 0.03 µg/mL
[11]
  EC50 neutralization by RFFIT: 0.009 µg/mL
[12]
  EC50 neutralization by RFFIT (Test B): < 0.0002 µg/mL
[13]
  EC50 neutralization by RFFIT (Test B): 117 µg/mL
[14]
  EC50 neutralization by RFFIT (Test B): 0.014 µg/mL
[15]
  EC50 neutralization by RFFIT (Test B): 0.002 µg/mL
[16]
  EC50 neutralization by RFFIT (Test B): 0.005 µg/mL
[17]
  EC50 neutralization by RFFIT (Test B): 0.033 µg/mL
[18]
  EC50 neutralization by RFFIT (Test B): 0.005 µg/mL
[19]
  EC50 neutralization by RFFIT (Test B): 0.005 µg/mL
[20]
  EC50 neutralization by RFFIT (Test B): 0.011 µg/mL
[21]
  EC50 neutralization by RFFIT (Test A): 0.02 µg/mL
[22]
  EC50 neutralization by RFFIT (Test A): 0.043 µg/mL
[23]
  EC50 neutralization by RFFIT (Test A): > 2400 µg/mL
[24]
  EC50 neutralization by RFFIT (Test A): 0.015 µg/mL
[25]
  EC50 neutralization by RFFIT (Test A): 422 µg/mL
[26]
  EC50 neutralization by RFFIT (Test A): > 2400 µg/mL
[27]
  EC50 neutralization by RFFIT (Test A): 0.005 µg/mL
[28]
  EC50 neutralization by RFFIT (Test A): 0.008 µg/mL
[29]
  EC50 neutralization by RFFIT (Test A): > 2400 µg/mL
[30]
  EC50 neutralization by RFFIT (Test A): 1.57 µg/mL
[31]
  EC50 neutralization by RFFIT (Test A): 0.004 µg/mL
[32]
  EC50 neutralization by RFFIT (Test A): 0.006 µg/mL
[33]
  EC50 neutralization by RFFIT (Test A): 0.006 µg/mL
[34]
  EC50 neutralization by RFFIT (Test A): 0.004 µg/mL
[35]
  EC50 neutralization by RFFIT (Test A): 0.48 µg/mL
[36]
  EC50 neutralization by RFFIT (Test A): 0.01 µg/mL
[37]
  EC50 neutralization by RFFIT (Test A): 0.008 µg/mL
[38]
  EC50 neutralization by RFFIT (Test A): > 2400 µg/mL
[39]
  EC50 neutralization by RFFIT (Test A): 83 µg/mL
[40]
  EC50 neutralization by RFFIT (Test A): 864 µg/mL
[41]
  EC50 neutralization by RFFIT (Test A): 0.004 µg/mL
[42]
  EC50 neutralization by RFFIT (Test A): 222 µg/mL
[43]
  EC50 neutralization by RFFIT (Test A): 0.03 µg/mL
[44]
  EC50 neutralization by RFFIT (Test A): 0.009 µg/mL
[45]
  EC50 neutralization by RFFIT (Test A): 1620 µg/mL
